Here are results for two molecules from patent publication US11407819B2, “Compositions and use of a fibrinogen binding motif present in EFB and COA for therapeutics and vaccines against Staphylococcus aureus” (priority 2013, dated 2022).

In assay [1] the target is Coa-C311-636, Coa-F311-505, Coa-R0474-505. The note with it: all three Coa fragments (Coa-C311-636, Coa-F311-505, Coa-R0474-505). The source says: (§1) Apparent affinity values were generated through analysis of the half maximum binding in ELISA, using […] PRISM® Version 6.01.
The subject of assay [2] is Coa-F, Coa-R0, Efb-N, Efb-O, Efb-A binding to Fg. Nature of the assay: Inhibition by FBE5 scFv-Fc of Coa and Efb fragment binding to immobilized human Fg. Details: species or system Staphylococcus aureus. The note with it: scFv-Fc 0.5, 5, 50 μg/ml; Coa-F, Coa-R0, Efb-N, Efb-O 10 nM; Efb-A 750 nM. The protocol: To assess the inhibitory activity of anti-Coa scFv-Fc antibodies, 0.5 μg/well of human Fg was immobilized at 4° C. overnight in 50 mM Carbonate Buffer, pH 9.6. Indicated amounts (50, 5, 0.5 μg/ml) of scFv-Fcs prepared in 2% BSA+1×TBS+0.05% TWEEN® 20 were pre-incubated for 1 hour with a constant concentration of Coa or Efb fragments also prepared in 2% BSA+1×TBS+0.05% TWEEN® 20 at room temperature, 250 rpm shaking. Specifically, Coa-F, Coa-R0, Efb-N and Efb-O were at a fixed concentration of 10 nM; whereas Efb-A was at 750 nM. Fg-binding activity of each protein alone was also checked (no mAb control—0 μg/ml). The Fg-coated plate was blocked with 2% BSA-TBST and washed with PBST. […] Residual bound Coa and Efb fragments were detected with HRP-conjugated (HorseRadish Peroxidase-conjugated) α-GST-tag antibody, except for Efb-N, where an HRP-conjugated α-HIS-tag was used (see FIG. 18). HRP-tagged antibodies were diluted in 2% BSA+1×TBS+0.05% TWEEN® 20 and used at 1:10000 dilution. […] HRP signal was developed using […]™ OPD tablets using manufacturer's guidelines. Binding of Coa and Efb fragments to Fg (no mAb control) was set to 100% and residual binding to Fg of Coa and Efb fragments in the presence of different concentrations of antibodies was calculated and represented.
To assess the inhibitory activity of anti-Coa scFv-Fc antibodies, 0.5 μg/well of human Fg was immobilized at 4° C. overnight in 50 mM Carbonate Buffer, pH 9.6. Indicated amounts (0, 0.5, 5, and 50 μg/ml) of scFv-Fcs were pre-incubated for 1 hour with a constant concentration of Coa or Efb fragments. Specifically, Coa-F, Coa-R0, Efb-N and Efb-O were at a fixed concentration of 10 nM; whereas Efb-A was at 750 nM. Fg-binding activity of each protein alone was also checked (no mAb control—0 μg/ml). The Fg-coated plate was blocked with 2% BSA-PBST and washed with PBST. The pre-incubated mixture of Coa/Efb and anti-Coa scFv-Fc was transferred on the Fg-coated plate. Residual bound Coa and Efb fragments were detected with HRP-conjugated (HorseRadish Peroxidase-conjugated) α-GST-tag antibody, except for Efb-N, where an HRP-conjugated α-HIS-tag was used. Binding of Coa and Efb fragments to Fg (no mAb control) was set to 100% and residual binding to Fg of Coa and Efb fragments in the presence of different concentrations of antibodies was calculated and represented.

For another assay, the system named is Coa-C311-636. The assay can be described thus: Solid-phase binding ELISA of scFv-Fc antibodies to Coa-C311-636. Conditions: 200 ng/well. Details: species or system Staphylococcus aureus. The protocol:
(§2) As well, binding was tested against Coa fragments, namely Coa-C311-636. Coa-F311-505. Coa-R0474-505 and Coa-R506-636. Recombinant proteins Efb-N30-105, Efb-A30-67, Efb-O68-98, Coa-C311-636, Coa-F311-505, Coa-R0474-505 and Coa-R506-636 were diluted in 50 mM sodium carbonate pH 9.6 and immobilized at the concentration of 200 ng/well for 1 hour at room temperature. Immobilized proteins were probed for recognition in a solid-phase binding assay with different quantities of LIG40 antibodies after blocking and washing. After washing, varying concentrations of LIG40 scFv-Fc antibodies were diluted in 2% BSA+1×PBS+0.05% TWEEN® 20 and incubated with the immobilized proteins for 1 hour at room temperature with shaking at 250 rpm. Bound scFv-Fcs were detected using polyclonal α-human IgG HRP-conjugated Ab diluted to 1:10000 in 2% BSA+1×PBS+0.05% TWEEN® 20. HRP-conjugated Ab was incubated for 1 hour at room temperature with shaking at 250 rpm.
as §1
A general note: An ELISA detects its analyte on a solid surface through an enzyme-linked reagent.

In a further assay the target is T1, Coa-R506-636 (Staphylococcus aureus, UniProt P07767).
T1 construct: the Coa-R is corresponding to the tandem-repeat region covering residue 506-636; GST (N); made in house; host or cells: E. coli BL21
It counts as binding. The note with it: 200 ng/well. As for the experimental part:
as §2, §1

Assay [3] deals with Coa-F311-505 and Coa-R0474-505. Nature of the assay: Solid-phase binding ELISA of LIG40 antibodies to Coa-F311-505 and Coa-R0474-505. Also on record: species or system Staphylococcus aureus. The note with it: 200 ng/well. As for the experimental part:
As well, binding was tested against Coa fragments, namely Coa-C311-636. Coa-F311-505. Coa-R0474-505 and Coa-R506-636. […] Immobilized proteins were probed for recognition in a solid-phase binding assay with different quantities of LIG40 antibodies after blocking and washing. […] HRP signal was developed with […]™ OPD using manufacturers guidelines. These 2 antibodies bound only Coa fragments in a dose dependent manner. No binding to truncated recombinant Efb proteins was observed.
For both antibodies, values in the range of 10^−10-10^−11 M were obtained.

Another assay concerns CoaC and CoaR. Nature of the assay: Peptide (CoaRO, CoaRI) inhibition of LIG40 mAbs binding to immobilized CoaC and CoaR. Also on record: species or system Staphylococcus aureus. The note with it: mAbs 0.5 μg/ml; 200 ng/well. As for the experimental part:
To investigate if LIG40 mAbs could be inhibited by CoaRO and CoaRI peptides, CoaC and CoaR (200 ng/well) was immobilized at 4° C. overnight in 50 mM Carbonate Buffer, pH 9.6. A fixed concentration of mAbs (0.5 μg/ml) prepared in 2% BSA+1×TBS+0.05% TWEEN® 20 was added to the wells along with indicated amounts of CoaRO and CoaRI peptides prepared in 1X TBS. Incubation for 1 hour, room temperature, 250 rpm shaking followed. After washing, the levels of bound mAbs were determined using a polyclonal α-human IgG HRP-conjugated Ab diluted 1:10000 in 2% BSA+1×TBS+0.05% TWEEN® 20. […] The development was performed through […]™ OPD tablets following manufacturer's protocol. […] First, to achieve appreciable inhibition high concentration of peptides needed to be used (above 100 μM).
To investigate if LIG40 mAbs could be inhibited by CoaRO and CoaRI peptides, CoaC and CoaR (200 ng/well) was immobilized at 4° C. overnight in 50 mM Carbonate Buffer, pH 9.6. A fixed concentration of mAbs (0.5 μg/ml) was added to the wells along with, indicated amounts of CoaRO and CoaRI peptides. Incubation for 1 hour, room temperature, 250 rpm shaking followed. After washing, […] were incubated with polyclonal α-human IgG HRP-conjugated Ab. […] First, to achieve appreciable inhibition high concentration of peptides needed to be used (above 100 μM).

Positions count from the first letter of the chain named. “Also recorded” adds a separate entry of the source.

B1: FBE5-F11: VH SEQ ID NO: 81, VL SEQ ID NO: 111 (antibody, V domains shown)
VH: QVQLQESGGGVVQPGRSLRLSCAASGFTFSSYGMHWVRQAPGKGLEWVAVISYDGSNKYYADSVKGRFTISRDNSKNTLYLQMNSLRAEDTAVYYCAKDLASSGFDYWGQGTLVTVSS
VL: QSVLTQPPSVSAAPGQKVTISCSGSSSNIGNNYVSWYQQLPGTAPKLLIYDNNKRPSGIPDRFSGSKSGTSATLGITGLQTGDEADYYCGTWDSSLSAEVFGGGTKLTVL
With B1, the “apparent Kd of anti-CoaC mAbs to Coa fragments (EC50 in ELISA)” value in assay [1] is given as “highest affinity”. For the same molecule, in assay [2], the “inhibition of binding to Fg of all proteins tested” value was “dose dependent inhibition of all proteins tested; also recorded: marked inhibition against all fragments of Coa and Efb”.

B2: LIG40-D8: VH SEQ ID NO: 100, VL SEQ ID NO: 130; selected against Coa-R506-636 (antibody, V domains shown)
VH: B1 VH with Q1E, Q5V, S52W, K98R, L100Y, A101H, S102G, S103D
VL: DIQMTQSPSSLSASVGDTVTITCRASQDINNYLAWFQQKPGKAPKSLISAASSLQNGVPLRFSGSASGADFTLTISGLQPEDSGTYYCQQYDVFPITFGPGTKVDIK
For the molecule B2, the “binding to Coa-C311-636” value with Coa-C311-636 is listed as “bound”. The “binding to Coa-R506-636” value in the assay with Coa-R506-636 is on record as “bound”. The “binding to Coa-F311-505 and Coa-R0474-505” value in assay [3] was “detected to a minor extent; also recorded: minor binding”. Further, the “inhibition of LIG40 mAb binding to CoaC and CoaR by peptides” value with CoaC and CoaR was “only impaired in its binding activity by CoaRO peptide”.
